T1: human lymphotoxin (human, UniProt P01374 35-205, limits assumed)
T1 sequence (looked up): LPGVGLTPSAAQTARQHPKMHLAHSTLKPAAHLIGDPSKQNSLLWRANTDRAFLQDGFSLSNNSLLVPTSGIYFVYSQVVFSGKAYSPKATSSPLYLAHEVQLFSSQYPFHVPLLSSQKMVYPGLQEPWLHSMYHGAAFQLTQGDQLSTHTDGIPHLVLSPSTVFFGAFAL


Tests used:
recombinant human TNFα [1] = target: T2, recombinant human TNFα (human, UniProt P01375 77-233, 125I-labeled in the receptor-blocking assay ; 125I-labelled (positions not stated) only in the receptor-blocking assay; soluble homotrimer of this 17 kD subunit); assay: cell-based or functional assay
recombinant human TNFα [2] = target: T2, recombinant human TNFα; assay: competition radioligand assay: mAb in hybridoma supernatant preincubated with 5 ng/ml 125I-TNFα, then 125I-TNFα bound to plate-coated p55-sf2 (TNF receptor/IgG fusion) counted as cpm
Description: (§1) Although eight TNV mAb samples were tested in these experiments, for simplicity three of the mAbs that were shown by DNA sequence analyses to be identical to one of the other TNV mAbs (see Section 5.2.2) are not shown here. Each sample was tested in duplicate. The results shown are representative of two independent experiments.
(§2) 50:1 of p55-sf2 at 0.5 :g/ml in PBS was added to Optiplates to coat the wells during a one-hour incubation at 37° C. Serial dilutions of the eight TNV cell supernatants were prepared in 96-well round-bottom plates using PBS/0.1% BSA as diluent. […] The mixture was preincubated for one hour at RT. […] After 2 hrs at RT, Optiplates were washed three times with PBS-Tween. […] of Microscint-20 was added and the cpm bound determined using the TopCount gamma counter.

recombinant human TNFα [3] = target: T2, recombinant human TNFα; assay: inhibition of 125I-TNFα binding to plate-coated p55-sf2 by hybridoma supernatant
Description: as §1, §2

human lymphotoxin = target: T1, human lymphotoxin; assay: not described

Row | Binder | neutralizing TNFα bioactivity (potency relative to TNV14) (recombinant human TNFα [1]) [fold] | IC50 (read off the curve) (recombinant human TNFα [2]) [ng/mL] | fold better at blocking TNF binding than TNV118 and TNV14 (recombinant human TNFα [3]) [fold] | binding result (human lymphotoxin)
1 | GenTNV148.26.12 (antibody, human IgG1, kappa, V domains shown, also called C420A) VH: QVQLVESGGGVVQPGRSLRLSCAASGFIFSSYAMHWVRQAPGNGLEWVAFMSYDGSNKKYADSVKGRFTISRDNPKNTLYLQMNSLRAEDTAVYYCARDRGIAAGGNYYYYGMDVWGQGTTVTVSS VL: EIVLTQSPATLSLSPGERATLSCRASQSVYSYLAWYQQKPGQAPRLLIYDASNRATGIPARFSGSGSGTDFTLTISSLEPEDFAVYYCQQRSNWPPFTFGPGTKVDIKR | 4 | ~3 | ~4 | 
2 | GenTNV86.14.34 (antibody, human IgG1, kappa, V domains shown, also called C417A) VH: QVQLVESGGGVVQPGRSLRLSCAASGFIFSSYAMHWVRQAPGNGLEWVAFMSYDGSNKKYADSVKGRFTISRDNPKNTLYLQMNSLRAEDTAVYYCARDRGIAAGGNYYYYGMDVWGQGTTVTVSS VL: EIVLTQSPATLSLSPGERATLSCRASQSVYSYLAWYQQKPGQAPRLLIYDASNRATGIPARFSGSGSGTDFTLTISSLEPEDFAVYYCQQRSNWPPFTFGPGTKVDIKR |  |  | ~4 | 
3 | golimumab (antibody, human IgG1, kappa, V domains shown, partial cyclic succinimide at LC Asn93 (LC cycAsn93); N-glycosylated on asparagine 306; partial deamidation of HC Asn43, Fully human IgG1 kappa, produced in Sp2/0 cells; also called SIMPONI) VH: QVQLVESGGGVVQPGRSLRLSCAASGFIFSSYAMHWVRQAPGNGLEWVAFMSYDGSNKKYADSVKGRFTISRDNSKNTLYLQMNSLRAEDTAVYYCARDRGIAAGGNYYYYGMDVWGQGTTVTVSS VL: EIVLTQSPATLSLSPGERATLSCRASQSVYSYLAWYQQKPGQAPRLLIYDASNRATGIPARFSGSGSGTDFTLTISSLEPEDFAVYYCQQRSNWPPFTFGPGTKVDIKR |  |  |  | no binding
